From US20160058881A1, “PRODRUGS WITH PROLONGED ACTION” (INDIANA UNIVERSITY RESEARCH AND TECHNOLOGY CORPORATION, priority 2013, published 2016)
Like-named read-outs stand apart in the source and are kept apart here. Positions of bridges follow the written chain, without caps; N, C: chain ends. Non-standard residues stand in square brackets, D forms with d. Residues, ends and D or L forms follow the SMILES beside them. Groups on a side chain read outwards from the residue. No end group written: not given here. *: point of attachment. Docosanoyl = CCCCCCCCCCCCCCCCCCCCCC(=O)*; Phe(4-NH2) = Nc1ccc(C[C@H](N)C(=O)O)cc1; PhLac = O=C(O)[C@@H](O)Cc1ccccc1; Aib = CC(C)(N)C(=O)O; Sar = CNCC(=O)O

Tests used:
GLP-1 receptor [1] = biological target: T1, GLP-1 receptor (Homo sapiens, UniProt P43220); assay: GLP-1 agonist activity, cAMP production in an in vitro assay; format: cell-based; settings: versus glucagon receptor
Target sequence in this assay (P43220 24-463): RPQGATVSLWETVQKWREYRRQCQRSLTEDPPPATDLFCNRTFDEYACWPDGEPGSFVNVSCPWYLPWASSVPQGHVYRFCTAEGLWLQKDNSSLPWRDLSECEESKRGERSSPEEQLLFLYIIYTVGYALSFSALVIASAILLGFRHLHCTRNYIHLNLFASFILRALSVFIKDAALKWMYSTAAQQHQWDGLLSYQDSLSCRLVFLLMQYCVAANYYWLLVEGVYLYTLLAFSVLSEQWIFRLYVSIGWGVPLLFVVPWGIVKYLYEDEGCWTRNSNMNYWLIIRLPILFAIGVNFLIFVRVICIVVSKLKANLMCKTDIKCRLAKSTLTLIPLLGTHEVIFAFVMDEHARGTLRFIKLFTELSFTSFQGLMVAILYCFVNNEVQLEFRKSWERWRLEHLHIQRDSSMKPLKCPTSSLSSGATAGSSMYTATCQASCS
Description: Receptor activation can be measured by in vitro assays measuring cAMP induction in HEK293 cells over-expressing the receptor, e.g. assaying HEK293 cells co-transfected with DNA encoding the receptor and a luciferase gene linked to cAMP responsive element as described in the examples.

glucagon receptor [2] = biological target: glucagon receptor (UniProt P47871); assay: cell-based or functional assay
Chain of glucagon receptor (UniProt P47871) (P47871 26-477 limits assumed): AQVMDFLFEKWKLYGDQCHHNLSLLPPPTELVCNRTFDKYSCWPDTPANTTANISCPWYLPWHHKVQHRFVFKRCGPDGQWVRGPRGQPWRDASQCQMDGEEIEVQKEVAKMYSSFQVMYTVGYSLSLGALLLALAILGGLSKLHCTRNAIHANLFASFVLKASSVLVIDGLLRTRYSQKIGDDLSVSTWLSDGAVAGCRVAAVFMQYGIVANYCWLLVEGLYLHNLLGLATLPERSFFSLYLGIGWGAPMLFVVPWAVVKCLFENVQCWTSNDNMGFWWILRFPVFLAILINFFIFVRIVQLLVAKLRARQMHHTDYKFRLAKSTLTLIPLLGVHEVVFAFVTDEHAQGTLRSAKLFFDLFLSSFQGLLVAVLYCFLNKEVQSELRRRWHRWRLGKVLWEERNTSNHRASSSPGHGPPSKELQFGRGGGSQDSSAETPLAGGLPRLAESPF

GLP-1 receptor [3] = biological target: T1, GLP-1 receptor; assay: cell-based or functional assay
Target sequence in this assay (P43220 24-463 limits assumed): as the sequence (P43220 24-463) above

glucagon receptor [4] = biological target: glucagon receptor (UniProt P47871); assay: cell-based or functional assay; remark: listed apart in the source
GLP-1 receptor [5] = biological target: T1, GLP-1 receptor; assay: cell-based or functional assay; remark: listed apart in the source
Target sequence in this assay (P43220 24-463 limits assumed): as the sequence (P43220 24-463) above

[6] = test system: diet induced obesity (DIO) mice; assay: In vivo effects of daily prodrug injection in DIO mice (Example 6); design: species or system mice (strain: C57B16); settings: s.c. daily for 5 days, 10 nmol/kg
Description: C22 acylated versions of Peptide D were also tested for their in vivo effects in diet induced obesity (DIO) mice (strain: C57B16) following daily administrations. Nine groups of eight mice (with an initial average body weight of 65 g) were subcutaneously injected daily for 5 days with vehicle only or 3 nmol/kg or 10 nmol/kg of Peptide D (parent peptide), a Peptide D with C22 acylation via the prodrug dipeptide moiety and Peptide D with a C22 acyl group linked directly to the 4-amino phenylalanine at position 10. The mice were 11 months old and had been on a high fat diet for approximately 2 months. Body weight was monitored for a week following injection and was measured on Day 0, 1, 2, 3, 4 and 7, wherein Day 0 was the day of injection (FIG. 4A, 4B).

GLP-1 receptor [7] = biological target: T1, GLP-1 receptor; assay: GLP-receptor luciferase bioassay of samples incubated in 20% human plasma (restored activity); format: cell-based; settings: 37° C.; for Change of activity over the time points in plasma: 0 to 5 d
Description: To explore the possible formation of DKP and simultaneous regeneration of the parent drug, the above-mentioned peptides were incubated in 20% human plasma at 37° C. for approximately 5 days. Samples were collected at different time points (0, 1, 2, and 5 days).
Target sequence in this assay (P43220 24-463): as above

[8] = test system: diet induced obesity (DIO) mice; assay: In vivo effects in DIO mice, single injection (Example 4); design: species or system mice (strain: C57B16); settings: single s.c. injection, lower dose (10 nmol/kg), Day 0-5
Description: The Peptide D prodrug described in Example 3 was tested for its in vivo effects in diet induced obesity (DIO) mice (strain: C57B16). Nine groups of eight mice (with an initial average body weight of 50 g) were subcutaneously injected with vehicle only or 10 nmol/kg or 50 nmol/kg of a Peptide D acylated prodrug of Example 3, the parent peptide (i.e., Peptide D lacking an acylated dipeptide prodrug moiety), Peptide D with an acylated lysine residue linked directly the 4-amino phenylalanine at position 10, or the following peptide: YAib[…](γEγE-C16)[…]ib[…] (SEQ ID NO: 3082) (Peptide F). The mice were 6 months old and had been on a high fat diet for approximately 2 months. Body weight was monitored for a week following injection and was measured on Day 0, 1, 2, and 5, wherein Day 0 was the day of injection (FIG. 2).

[9] = test system: diet induced obesity (DIO) mice; assay: In vivo effects of acyl chain length variants in DIO mice, single injection (Example 5); design: species or system mice (strain: C57B16); settings: single s.c. injection, 10 nmol/kg, Day 0-7
Description: The Peptide D variants described above were also tested for their in vivo effects in diet induced obesity (DIO) mice (strain: C57B16). Nine groups of eight mice (with an initial average body weight of 50 g) were subcutaneously injected with vehicle only, or 10 nmol/kg of a Peptide D with C18 acylation via the dipeptide prodrug moiety (as described in Example 3), the parent peptide (i.e., Peptide D lacking acylation and lacking a dipeptide prodrug moiety), Peptide D with a C18 acyl group linked directly to the 4-amino phenylalanine at position 10, a Peptide D with C20 acylation via the dipeptide prodrug moiety, Peptide D with a C20 acyl group linked directly to the 4-amino phenylalanine at position 10, a Peptide D with C22 acylation via the dipeptide prodrug moiety, and Peptide D with a C22 acyl group linked directly to the 4-amino phenylalanine at position 10. The mice were 6 months old and had been on a high fat diet for approximately 2 months. Body weight was monitored for a week following injection and was measured on Day 0, 1, 2, 5, and 7 wherein Day 0 was the day of injection (FIG. 3A, 3B).

[10] = format: in vitro ADME
Description: The peptides described above were incubated in PBS buffer or serum at 37° C. for up to 8 days. Samples were collected at different time points for PBS and plasma and half-life was determined. […] The peptides described above were incubated in PBS buffer or serum at 37° C. for up to 8 days. Samples were collected at different time points for PBS and plasma and half-life was determined. […] The shorter half-life seen when the acylated dipeptide was linked to […] might be due to a conformational change that facilitates cleavage when bound to plasma or alternatively to reduced detection of the acylated form when bound to plasma.

[11] = format: physicochemical; settings: buffer
Description: Preliminary analyses were performed with these crude peptides for an approximation of their relative conversion rates in Phosphate Buffered Saline (PBS) buffer (pH, 7.2) using high performance liquid chromatography (HPLC) and MALDI analysis. The crude peptide samples were dissolved in the PBS buffer at a concentration of 1 mg/mL. […] Aliquots of 100 μL were drawn out at various time intervals, cooled to room temperature and analyzed by HPLC. […] The peptides described above were incubated in PBS buffer or serum at 37° C. for up to 8 days. Samples were collected at different time points for PBS and plasma and half-life was determined. […] The peptides described above were incubated in PBS buffer or serum at 37° C. for up to 8 days. Samples were collected at different time points for PBS and plasma and half-life was determined. […] The shorter half-life seen when the acylated dipeptide was linked to […] might be due to a conformational change that facilitates cleavage when bound to plasma or alternatively to reduced detection of the acylated form when bound to plasma.

[12] = test system: diet induced obese (DIO) mice; assay: In vivo effects of alternate prodrug injection schemes in DIO mice (Example 7); design: species or system mice (strain: C57B16); settings: s.c., 40 nmol/kg once, 20 nmol/kg twice, or 10 nmol/kg daily for four days
Description: C22 acylated versions of Peptide D were also tested for their in vivo effects in diet induced obese (DIO) mice (strain: C57B16) following alternative administration schedules. Two groups of eight mice (with an initial average body weight of 65 g) were subcutaneously injected once with 40 nmol/kg of Peptide D (parent peptide without acylation and without a dipeptide prodrug moiety), or 40 nmol/kg of a Peptide D with C22 acylation via the dipetide prodrug moiety. Three groups of eight mice were subcutaneously injected twice (1 day between injections, e.g., Monday-Wednesday) with vehicle only, 20 nmol/kg of Peptide D (parent peptide), or 20 nmol/kg of a Peptide D C22 acylated prodrug. Finally, three groups of eight mice were subcutaneously injected daily for four days with vehicle only, 10 nmol/kg of Peptide D (parent peptide), or 10 nmol/kg of a Peptide D C22 acylated prodrug.

glucagon receptor [13] = biological target: T2, glucagon receptor (UniProt P47871 26-477, limits assumed); assay: cell-based or functional assay
T2 sequence (P47871 26-477 limits assumed): as the sequence (P47871 26-477 limits assumed) above

glucagon receptor [14] = biological target: T2, glucagon receptor; assay: cell-based or functional assay; remark: listed apart in the source
GLP-1 receptor [15] = biological target: T3, GLP-1 receptor (UniProt P43220 24-463, limits assumed); assay: cell-based or functional assay
GLP-1 receptor [16] = biological target: T3, GLP-1 receptor; assay: cell-based or functional assay; remark: listed apart in the source
[17] = after last injection on day 4 to day 7

Molecule: SEQ ID NO: 22: glucagon analog substituting the native glutamine at position 3 with glutamic acid
- selectivity for the GLP-1 receptor (GLP-1 receptor [1]): approximately a tenfold selectivity for the GLP-1 receptor

Molecule: D9, K12E16(Lactam) glucagon(6-39) Cex peptide (Table 1 peptide 4)
- Glucagon IC50 (glucagon receptor [2]): 828 nM
- GLP-1 EC50 (GLP-1 receptor [3]): 18 nM
- Glu IC50 (glucagon receptor [4]): 828 nM
- GLP-1 EC50 (GLP-1 receptor [5]): 119 nM

Molecule: E9, K12E16(lactam) glucagon(6-39) Cex peptide (Table 1 peptide 2)
- Glucagon IC50 (glucagon receptor [2]): 2010 nM
- Glu IC50 (glucagon receptor [4]): 2010 nM
- GLP-1 EC50 (GLP-1 receptor [5]): 63 nM

Molecule: FAibEGTFTSDF(NH2)SIYLDKQAAAibEFVNWLLAGGPSSGAPPPS (F[Aib]EGTFTSD[Phe(4-NH2)]SIYLDKQAA[Aib]EFVNWLLAGGPSSGAPPPS-NH2; N-terminus assumed; SMILES CC[C@H](C)[C@H](NC(=O)[C@H](CO)NC(=O)[C@H](Cc1ccc(N)cc1)NC(=O)[C@H](CC(=O)O)NC(=O)[C@H](CO)NC(=O)[C@@H](NC(=O)[C@H](Cc1ccccc1)NC(=O)[C@@H](NC(=O)CNC(=O)[C@H](CCC(=O)O)NC(=O)C(C)(C)NC(=O)[C@@H](N)Cc1ccccc1)[C@@H](C)O)[C@@H](C)O)C(=O)N[C@@H](Cc1ccc(O)cc1)C(=O)N[C@@H](CC(C)C)C(=O)N[C@@H](CC(=O)O)C(=O)N[C@@H](CCCCN)C(=O)N[C@@H](CCC(N)=O)C(=O)N[C@@H](C)C(=O)N[C@@H](C)C(=O)NC(C)(C)C(=O)N[C@@H](CCC(=O)O)C(=O)N[C@@H](Cc1ccccc1)C(=O)N[C@H](C(=O)N[C@@H](CC(N)=O)C(=O)N[C@@H](Cc1c[nH]c2ccccc12)C(=O)N[C@@H](CC(C)C)C(=O)N[C@@H](CC(C)C)C(=O)N[C@@H](C)C(=O)NCC(=O)NCC(=O)N1CCC[C@H]1C(=O)N[C@@H](CO)C(=O)N[C@@H](CO)C(=O)NCC(=O)N[C@@H](C)C(=O)N1CCC[C@H]1C(=O)N1CCC[C@H]1C(=O)N1CCC[C@H]1C(=O)N[C@@H](CO)C(N)=O)C(C)C) [Parent peptide (Peptide D), Peptide D lacking acylation and lacking a dipeptide prodrug moiety]
- Body weight [6, 17]: began gaining weight
- Change of activity over the time points in plasma (GLP-1 receptor [7]): No change
- Body weight [8]: declined through day 1, but returned close to the starting weight by day 5
- Body weight [9]: declined through day 1, but returned toward the starting weight by day 7

Molecule: CC[C@H](C)[C@H](NC(=O)[C@H](CO)NC(=O)[C@H](Cc1ccc(N)cc1)NC(=O)[C@H](CC(=O)O)NC(=O)[C@H](CO)NC(=O)[C@@H](NC(=O)[C@H](Cc1ccccc1)NC(=O)[C@@H](NC(=O)CNC(=O)[C@H](CCC(=O)O)NC(=O)C(C)(C)NC(=O)[C@@H](N)Cc1ccccc1)[C@@H](C)O)[C@@H](C)O)C(=O)N[C@@H](Cc1ccc(O)cc1)C(=O)N[C@@H](CC(C)C)C(=O)N[C@@H](CC(=O)O)C(=O)N[C@@H](CCCCN)C(=O)N[C@@H](CCC(N)=O)C(=O)N[C@@H](C)C(=O)N[C@@H](C)C(=O)NC(C)(C)C(=O)N[C@@H](CCC(=O)O)C(=O)N[C@@H](Cc1ccccc1)C(=O)N[C@H](C(=O)N[C@@H](CC(N)=O)C(=O)N[C@@H](Cc1c[nH]c2ccccc12)C(=O)N[C@@H](CC(C)C)C(=O)N[C@@H](CC(C)C)C(=O)N[C@@H](C)C(=O)NCC(=O)NCC(=O)N1CCC[C@H]1C(=O)N[C@@H](CO)C(=O)N[C@@H](CO)C(=O)NCC(=O)N[C@@H](C)C(=O)N1CCC[C@H]1C(=O)N1CCC[C@H]1C(=O)N1CCC[C@H]1C(=O)N[C@@H](CO)C(N)=O)C(C)C [Peptide D] (H-F[Aib]EGTFTSD[Phe(4-NH2)]SIYLDKQAA[Aib]EFVNWLLAGGPSSGAPPPS-NH2; N-terminus and C-terminus assumed)
- half-life [10]: ~24 h
- Body weight [8]: decline in weight through day 2 before weight began to increase slightly
- Body weight [9]: caused the most weight loss
- half-life [11]: ~24 h

Molecule: C22 attached to position 10 (via A-B prodrug): Peptide D with (d)Lysine-sarcosine dipeptide on 4-amino group of phenylalanine at position 10, C22 acyl on epsilon amino of (d)Lysine (F[Aib]EGTFTSD[Phe(4-NH2)]([Sar-dK-Docosanoyl])SIYLDKQAA[Aib]EFVNWLLAGGPSSGAPPPS; not fully specified (C-terminus))
- Body weight [6, 17]: continued to lose weight through day 7
- Body weight ([6]; through day 4): caused the most weight loss
- Restored (activity relative to parent peptide) (GLP-1 receptor [7]; 0 d): Restored 36%
- Change of activity over the time points in plasma (GLP-1 receptor [7]): Activity Restored
- Restored (activity relative to parent peptide) (GLP-1 receptor [7]; 1 d): Restored 57%
- Restored (activity relative to parent peptide) (GLP-1 receptor [7]; 5 d): Restored 87%
- Body weight (weight loss compared to the parent peptide) [12]: more total and sustained weight loss

Molecule: [PhLac]TSDYSKYLDERRAKDFVQWLMDT (lactam 11-15) [[PLA6, D9, E16K20(lactam), D28]G(6-29) (Table 2 peptide 1)]
- Glucagon IC50 (glucagon receptor [13]): 10 to 30 nM
- Glucagon IC50 (glucagon receptor [14]): 6 nM
- GLP-1 EC50 (GLP-1 receptor [15]): 4 nM

Molecule: [PhLac]TSDYSKYLDERRAQDFVQWLMDT (lactam 7-11; not fully specified) [[PLA6, D9, K12E16(Lactam), D28]G(6-29) (Table 2 peptide 2)]
- Glucagon IC50 (glucagon receptor [13]): 63 nM
- GLP-1 EC50 (GLP-1 receptor [16]): 177 nM
- Glucagon IC50 (glucagon receptor [14]): 13 nM
- GLP-1 EC50 (GLP-1 receptor [15]): 21 nM
